Source: paper PMC3150272, “Crystal Structure of Reovirus Attachment Protein σ1 in Complex with Sialylated Oligosaccharides” (PLoS Pathogens, 2011)

Target: the molecule itself
Assay: crystal structure; crystals grown in 15% PEG200, 0.1 M MES pH 6.5; space group P2(1)2(1)2, one trimer in the asymmetric unit; soaked with 10 mM α-2,3-sialyllactose, α-2,6-sialyllactose or α-2,8-disialyllactose

B1: reovirus type 3 Dearing (T3D) attachment protein σ1, body and head domains (residues 170-455), Ile249 (domain or fragment)
chain: VTSAGAPLSIRNNRMTMGLNDGLTLSGNNLAIRLPGNTGLNIQNGGLQFRFNTDQFQIVNNNLTLKTTVFDSINSRIGAIEQSYVASAVTPLRLNSSTKVLDMLIDSSTLEINSSGQLTVRSTSPNLRYPIADVSGGIGMSPNYRFRQSMWIGIVSYSGSGLNWRVQVNSDIFIVDDYIHICLPAFDGFSIADGGDLSLNFVTGLLPPLLTGDTEPAFHNDVVTYGAQTVAIGLSSGGAPQYMSKNLWVEQWQDGVLRLRVEGGGSITHSNSKWPAMTVSYPRSFT
notes: The His6-tagged GCN4 trimerization domain was removed by trypsin before the final purification and crystallization; also called T3D σ1; reovirus attachment protein σ1; source: E. coli Rosetta 2 DE3, purified (Ni-IMAC, on-column trypsin digestion, Superdex-200 SEC); not shown: His6, N-terminal, cleaved; GCN4 trimerization domain (modified GCN4 leucine zipper), N-terminal, cleaved
With B1 the “stoichiometry N” value was 3.
